Reference: patent publication US12539335B2, “Tricyclic polypeptide conjugated drug and use thereof” (CONJUSTAR (ZHUHAI) BIOLOGICS CO., LTD., priority 2021, dated 2026)
Structures can show the parent of a compound that is named as a salt. Starred links: 1 amine or outer side, 2 acyl side, 3 side chain; linkers in the order of their positions; H or OH if unused. Positions of bridges follow the written chain, without caps; N, C: chain ends. Non-standard residues stand in square brackets, D forms with d. Residues, ends and D or L forms follow the SMILES beside them. Chains are numbered I, II in the order given. *: point of attachment. TATA = O=C(CC[*:1])N1CN(C(=O)CC[*:2])CN(C(=O)CC[*:3])C1; Dolaproine = CO[C@@H]([C@@H]1CCCN1)[C@@H](C)C(=O)O; Dil = CC[C@H](C)[C@H](NC)[C@@H](CC(=O)O)OC; 1Nal = N[C@@H](Cc1cccc2ccccc12)C(=O)O; X2 = O=C(CCCC(=O)[*:2])NCCC(=O)[*:1]; PABC = O=C(OCc1ccc(N[*:1])cc1)[*:2]; X1 = C[C@@H](N*)[C@@H](O)c1ccccc1; Hyp = O=C(O)[C@@H]1C[C@@H](O)CN1; hArg = N=C(N)NCCCC[C@H](N)C(=O)O; Cit = NC(=O)NCCC[C@H](N)C(=O)O; Pen = CC(C)(S)[C@H](N)C(=O)O; NMeV = CN[C@H](C(=O)O)C(C)C; Sar = CNCC(=O)O

Columns and labels:
[1] = Metabolic stability in hepatocytes, Cynomolgus macaques; assay type: in vitro ADME; conditions: cynomolgus macaque, hepatocytes (cryopreserved, suspension), 0.5×10^6 cells/mL
Procedure: (§1) Test Example 7: Metabolic Stability of the Compounds of the Present Invention in Hepatocytes from Mice, Rats, Cynomolgus Macaques, and Humans
(§2) To investigate the metabolic stability of the compounds of the present invention in hepatocytes from mice, rats, Cynomolgus macaques, and humans.
(§3) Incubations were performed in 96-well plates using an external extraction method. Several 96-well sample precipitation plates, designated T0, T15, T30, T60, T90, TO-MC, T90-MC, and blank matrix, were prepared, respectively. The recovery culture medium and incubation culture medium were removed in advance and placed in a 37° C. water bath for preheating. […]
(§4) At the end of the incubation at the corresponding time point, the incubation plates were removed, from which 25 μL of a compound mixture with the cells and a control compound mixture with the cells were removed and added to sample plates containing 125 μL of stop buffer, respectively. […] All samples were mixed uniformly and then analyzed by the LC-MS/MS method.
(§5) The concentration of the compound to be tested and the concentration of the control in the sample were semi-quantitatively determined by the liquid chromatography-tandem mass spectrometry (LC-MS/MS) method without a standard curve and quality control sample. […]

[2] = Stability in plasma, humans; assay type: in vitro ADME; conditions: human, 37° C.
Procedure: Test Example 9: Stability Analysis of the Compounds of the Present Invention in Plasma from Different Species
To test the stability of the compounds of the present invention in plasma from SD rats, Cynomolgus macaques, and humans.
The corresponding incubation plates, including T0, T10, T30, T60, T120, and T240 incubation plates, were added with a 2 μL working solution of the compound to be tested (100 μM). Three parallel wells were prepared for each sample. Then, 98 μL of blank plasma from SD rats, Cynomolgus macaques, and humans was added to the corresponding incubation plates to which the working solution had been added. All samples were incubated in a 37° C. water bath. […] At the end of each incubation time point, the corresponding incubation plate was removed, added with stop buffer, precipitated, and centrifuged for 20 minutes. Then, 150 μL of the supernatant was analyzed by the LC-MS/MS method. The concentration of the compound to be tested in the sample was semi-quantitatively determined by the liquid chromatography-tandem mass spectrometry (LC-MS/MS) method.

[3] = Pharmacokinetic analysis in Cynomolgus macaque plasma; assay type: in vivo; conditions: cynomolgus monkey, Cynomolgus macaques, single IV 1 mg/kg, plasma
Procedure: Test Example 6: Pharmacokinetic Analysis in Cynomolgus Macaque Plasma
To test the pharmacokinetics of the compounds of the present invention in Cynomolgus macaques.
The pharmacokinetic characteristics of the compound after intravenous injection were tested according to a standard protocol in Cynomolgus macaques. The compound to be tested was formulated into a clear solution using 25 mM L-histidine (pH=7) in 10% sucrose as a vehicle. Cynomolgus macaques were given a single intravenous injection of 1 mg/kg of the compound to be tested. Whole blood was collected at time points of 0.083, 0.25, 0.5, 1, 2, 4, 8, and 24 hours after administration to get plasma. The concentration of the compound to be tested and the concentration of its potential metabolite MMAE were analyzed by the LC-MS/MS method, and the pharmacokinetic parameters were calculated by Phoenix WinNonlin software.

[4] = Metabolic stability in kidney S9, Cynomolgus macaques; assay type: in vitro ADME; conditions: cynomolgus macaque
Procedure: (§6) Test Example 8: Metabolic Stability of the Compounds of the Present Invention in Kidney S9 from Mice, Rats, Cynomolgus Macaques, and Humans
(§7) To investigate the metabolic stability of the compounds of the present invention in kidney S9 from mice, rats, Cynomolgus macaques, and humans.
(§8) Materials: Kidney S9 from CD-1 mice, SD rats, Cynomolgus macaques, and humans were purchased from BioIVT or XenoTech LLC and stored in a −80° C. refrigerator.
(§9) Experimental procedure: Eight 96-well plates, designated T0, T5, T15, T30, T45, T60, Blank, and NCF60, were prepared. The first six incubation plates corresponded to reaction time points of 0, 5, 15, 30, 45, and 60 minutes, respectively. No test sample or control compound was added to the Blank plate.
(§10) The T0, T5, T15, T30, T45, and T60 plates were added with a 2 μL working solution of the test sample (10 mM of a solution of the compound to be tested in DMSO, diluted to 100 μM with 100% acetonitrile) and 100 μL of a S9 working solution (kidney S9 protein concentration of 1.0 mg/mL), and the Blank plate was only added with the S9 working solution. The above incubation plates were then placed in a 37° C. water bath for pre-incubation for about 10 minutes.
(§11) At the end of the pre-incubation, 98 μL of an auxiliary enzyme working solution was added to each sample well except the TO plate to start the reaction. […]

[5] = Metabolic stability in hepatocytes, humans; assay type: in vitro ADME; conditions: human, hepatocytes (cryopreserved, suspension), 0.5×10^6 cells/mL
Procedure: as §1, §2, §3, §4, §5

[6] = Metabolic stability in kidney S9, humans; assay type: in vitro ADME; conditions: human
Procedure: as §6, §7, §8, §9, §10, §11

What does the source list for `CC[C@H](C)[C@@H]([C@@H](CC(=O)N1CCC[C@H]1[C@H](OC)[C@@H](C)C(=O)N[C@H](C)[C@@H](O)c1ccccc1)OC)N(C)C(=O)[C@@H](NC(=O)[C@H](C(C)C)N(C)C(=O)OCc1ccc(NC(=O)[C@H](CCCNC(N)=O)NC(=O)[C@@H](NC(=O)CCCC(=O)NCCC(=O)N(C)CC(=O)N(C)CC(=O)N(C)CC(=O)N(C)CC(=O)N(C)CC(=O)N(C)CC(=O)N(C)CC(=O)N(C)CC(=O)N(C)CC(=O)N(C)CC(=O)N[C@H]2CCCCNC(=O)C[C@@H](C(=O)N[C@H]3CSCCC(=O)N4CN5CN(C4)C(=O)CCSC(C)(C)[C@H](NC(=O)[C@@H](CC(=O)O)NC(=O)[C@H](Cc4cccc6ccccc46)NC(=O)[C@@H]4CCCN4C3=O)C(=O)N[C@@H](CCSC)C(=O)N[C@@H](CCCCNC(=N)N)C(=O)N[C@@H](CC(=O)O)C(=O)N[C@@H](Cc3c[nH]c4ccccc34)C(=O)N[C@@H](CO)C(=O)N[C@@H]([C@@H](C)O)C(=O)N3CCC[C@H]3C(=O)N3C[C@H](O)C[C@H]3C(=O)N[C@@H](Cc3c[nH]c4ccccc34)C(=O)N[C@H](C(N)=O)CSCCC5=O)NC(=O)CN(C)C2=O)C(C)C)cc1)C(C)C` [Acetate salt of PDC_2] (I: [Sar][Sar][Sar][Sar][Sar][Sar][Sar][Sar][Sar][Sar]K[Sar]DCP[1Nal][dD][Pen]M[hArg]DWSTP[Hyp]WC-NH2 / II: V[Cit][PABC][NMeV]V[Dil][Dolaproine]-X1; lactam I:11-I:13; linker I:14-I:18-I:28 via TATA; linker I:N-II:N via X2)?
half-life at 1 μM [1]: > 3.61 h; CLint scaled at 1 μM ([1]; read-out: CLint (liver)): < 23 mL/min/kg; half-life at 2 μM [2]: > 9.63 h; AUC(0-t) [3]: 1 µM·h; C0 [3]: 3.1 µM; clearance [3]: 3.6 mL/min/kg; half-life [3]: 1.5 h; Vd ([3]; read-out: Vdss): 0.2 L/kg; half-life at 1 μM [4]: > 2.42 h; microsomal CLint at 1 μM [4]: < 9.6 µL/min/mg; half-life at 1 μM [5]: > 3.61 h; CLint scaled at 1 μM ([5]; read-out: CLint (liver)): < 17.8 mL/min/kg; half-life at 1 μM [6]: > 2.42 h; microsomal CLint at 1 μM [6]: < 9.6 µL/min/mg
